# In IntAct's records for PubMed 28966017:
# B1: MYND-type zinc finger-containing chromatin reader ZMYND8 (Homo sapiens), Q9ULU4 (parent)
# chain: MDISTRSKDPGSAERTAQKRKFPSPPHSSNGHSPQDTSTSPIKKKKKPGLLNSNNKEQSELRHGPFYYMKQPLTTDPVDVVPQDGRNDFYCWVCHREGQVLCCELCPRVYHAKCLRLTSEPEGDWFCPECEKITVAECIETQSKAMTMLTIEQLSYLLKFAIQKMKQPGTDAFQKPVPLEQHPDYAEYIFHPMDLCTLEKNAKKKMYGCTEAFLADAKWILHNCIIYNGGNHKLTQIAKVVIKICEHEMNEIEVCPECYLAACQKRDNWFCEPCSNPHPLVWAKLKGFPFWPAKALRDKDGQVDARFFGQHDRAWVPINNCYLMSKEIPFSVKKTKSIFNSAMQEMEVYVENIRRKFGVFNYSPFRTPYTPNSQYQMLLDPTNPSAGTAKIDKQEKVKLNFDMTASPKILMSKPVLSGGTGRRISLSDMPRSPMSTNSSVHTGSDVEQDAEKKATSSHFSASEESMDFLDKSTASPASTKTGQAGSLSGSPKPFSPQLSAPITTKTDKTSTTGSILNLNLDRSKAEMDLKELSESVQQQSTPVPLISPKRQIRSRFQLNLDKTIESCKAQLGINEISEDVYTAVEHSDSEDSEKSDSSDSEYISDDEQKSKNEPEDTEDKEGCQMDKEPSAVKKKPKPTNPVEIKEELKSTSPASEKADPGAVKDKASPEPEKDFSEKAKPSPHPIKDKLKGKDETDSPTVHLGLDSDSESELVIDLGEDHSGREGRKNKKEPKEPSPKQDVVGKTPPSTTVGSHSPPETPVLTRSSAQTSAAGATATTSTSSTVTVTAPAPAATGSPVKKQRPLLPKETAPAVQRVVWNSSSKFQTSSQKWHMQKMQRQQQQQQQQNQQQQPQSSQGTRYQTRQAVKAVQQKEITQSPSTSTITLVTSTQSSPLVTSSGSMSTLVSSVNADLPIATASADVAADIAKYTSKMMDAIKGTMTEIYNDLSKNTTGSTIAEIRRLRIEIEKLQWLHQQELSEMKHNLELTMAEMRQSLEQERDRLIAEVKKQLELEKQQAVDETKKKQWCANCKKEAIFYCCWNTSYCDYPCQQAHWPEHMKSCTQSATAPQQEADAEVNTETLNKSSQGSSSSTQSAPSETASASKEKETSAEKSKESGSTLDLSGSRETPSSILLGSNQGSDHSRSNKSSWSSSDEKRGSTRSDHNTSTSTKSLLPKESRLDTFWD
# partner: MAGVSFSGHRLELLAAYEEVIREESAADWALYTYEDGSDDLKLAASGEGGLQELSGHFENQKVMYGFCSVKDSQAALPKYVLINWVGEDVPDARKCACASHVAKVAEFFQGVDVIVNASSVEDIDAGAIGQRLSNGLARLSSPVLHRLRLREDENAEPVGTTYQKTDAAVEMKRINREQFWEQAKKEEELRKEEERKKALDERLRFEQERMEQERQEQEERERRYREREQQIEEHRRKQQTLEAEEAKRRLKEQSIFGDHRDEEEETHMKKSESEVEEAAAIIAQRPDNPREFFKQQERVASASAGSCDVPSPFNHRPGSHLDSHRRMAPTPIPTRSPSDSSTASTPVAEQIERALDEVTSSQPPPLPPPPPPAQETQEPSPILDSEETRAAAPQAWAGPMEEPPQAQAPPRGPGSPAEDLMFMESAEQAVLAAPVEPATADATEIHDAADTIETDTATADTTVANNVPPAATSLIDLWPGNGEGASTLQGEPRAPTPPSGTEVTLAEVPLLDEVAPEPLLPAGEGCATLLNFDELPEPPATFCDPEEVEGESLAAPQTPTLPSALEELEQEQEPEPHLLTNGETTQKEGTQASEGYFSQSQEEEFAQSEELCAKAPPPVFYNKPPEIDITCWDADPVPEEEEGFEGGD
# B2: Drebrin (Homo sapiens), Q16643 (parent)
# chain: B1 partner
# partner: B1 chain
# Variants of: B1
# Details: with dreb_human DBN1, Q16643
row,Variant,effect of a mutation on the interaction
1,H311A,disrupting interaction strength

# Variants of: B2
# Details: with zmyd8_human ZMYND8, Q9ULU4
row,Variant,effect of a mutation on the interaction
1,R10G,disrupting interaction strength
